Experimental findings from patent publication US20230250139A1 (MIT, published 2023) are described below.

The series deals with the molecule itself. The series is described as follows: self-assembly in cultured mouse hippocampal neurons; anti-HA immunofluorescence, confocal.

B1: UBC-1POK(E239Y)-Linker25-HA-gsg-Top7 (other)
chain: MIDYTAAGFTLLQGAHLYAPEDRGICDVLVANGKIIAVASNIPSDIVPNCTVVDLSGQILCPGFIDQHVHLIGGGGEAGPTTRTPEVALSRLTEAGVTSVVGLLGTDSISRHPESLLAKTRALNEEGISAWMLTGAYHVPSRTITGSVEKDVAIIDRVIGVKCAISDHRSAAPDVYHLANMAAESRVGGLLGGKPGVTVFHMGDSKKALQPIYDLLENCDVPISKLLPTHVNRNVPLFYQALEFARKGGTIDITSSIDEPVAPAEGIARAVQAGIPLARVTLSSDGNGSQPFFDDEGNLTHIGVAGFETLLETVQVLVKDYDFSISDALRPLTSSVAGFLNLTGKGEILPGNDADLLVMTPELRIEQVYARGKLMVKDGKACVKGTFETAGGSGGTGGSGGTGGSGGTGGSGGTGYPYDVPDYAGSGDIQVQVNIDDNGKNFDYTYTVTTESELQKVLNELKDYIKKQGAKRVRISITARTKKEAEKFAAILIKVFAELGYNDINVTWDGDTVTVEGQLE
With B1, the binding result is given as “binds”.

B2: UBC-1POK(E239Y)-Linker7-HA-Linker3-Top7 (other)
chain: MIDYTAAGFTLLQGAHLYAPEDRGICDVLVANGKIIAVASNIPSDIVPNCTVVDLSGQILCPGFIDQHVHLIGGGGEAGPTTRTPEVALSRLTEAGVTSVVGLLGTDSISRHPESLLAKTRALNEEGISAWMLTGAYHVPSRTITGSVEKDVAIIDRVIGVKCAISDHRSAAPDVYHLANMAAESRVGGLLGGKPGVTVFHMGDSKKALQPIYDLLENCDVPISKLLPTHVNRNVPLFYQALEFARKGGTIDITSSIDEPVAPAEGIARAVQAGIPLARVTLSSDGNGSQPFFDDEGNLTHIGVAGFETLLETVQVLVKDYDFSISDALRPLTSSVAGFLNLTGKGEILPGNDADLLVMTPELRIEQVYARGKLMVKDGKACVKGTFETAGGSGGTGYPYDVPDYAGSGDIQVQVNIDDNGKNFDYTYTVTTESELQKVLNELKDYIKKQGAKRVRISITARTKKEAEKFAAILIKVFAELGYNDINVTWDGDTVTVEGQLE
For B2, the binding result is “binds”.

B3: CMV-DHF40-Linker8-HA (other)
chain: MSSEKEELRERLVKICVELAKLKGDDTLKAAEAAEEAFRLVVLAAMLAGIDSSEVLELAIRLIKTCVVLAAMEGYDISEACRAAAEAFTRVAMAALRAGITSSLVLKAAIELIKECVLNAAVEGYDISEACRAAAEAFKRVAEAAKRAGITSLETLLRAIEEIRKRVEEAQREGNDISEACRQAAEEFRKKAEELKRRGDVGGSGGTGGYPYDVPDYA
On to B3, for which the binding result is “binds”.

B4: UBC-1POK(E239Y)-Linker12-gg-HA (other)
chain: MIDYTAAGFTLLQGAHLYAPEDRGICDVLVANGKIIAVASNIPSDIVPNCTVVDLSGQILCPGFIDQHVHLIGGGGEAGPTTRTPEVALSRLTEAGVTSVVGLLGTDSISRHPESLLAKTRALNEEGISAWMLTGAYHVPSRTITGSVEKDVAIIDRVIGVKCAISDHRSAAPDVYHLANMAAESRVGGLLGGKPGVTVFHMGDSKKALQPIYDLLENCDVPISKLLPTHVNRNVPLFYQALEFARKGGTIDITSSIDEPVAPAEGIARAVQAGIPLARVTLSSDGNGSQPFFDDEGNLTHIGVAGFETLLETVQVLVKDYDFSISDALRPLTSSVAGFLNLTGKGEILPGNDADLLVMTPELRIEQVYARGKLMVKDGKACVKGTFETAGGSGGTGGSGGTGGYPYDVPDYA
Turning to B4, the binding result is listed as “binds”.

B5: CMV-1POK(E239Y)-Linker8-HA (other)
chain: MIDYTAAGFTLLQGAHLYAPEDRGICDVLVANGKIIAVASNIPSDIVPNCTVVDLSGQILCPGFIDQHVHLIGGGGEAGPTTRTPEVALSRLTEAGVTSVVGLLGTDSISRHPESLLAKTRALNEEGISAWMLTGAYHVPSRTITGSVEKDVAIIDRVIGVKCAISDHRSAAPDVYHLANMAAESRVGGLLGGKPGVTVFHMGDSKKALQPIYDLLENCDVPISKLLPTHVNRNVPLFYQALEFARKGGTIDITSSIDEPVAPAEGIARAVQAGIPLARVTLSSDGNGSQPFFDDEGNLTHIGVAGFETLLETVQVLVKDYDFSISDALRPLTSSVAGFLNLTGKGEILPGNDADLLVMTPELRIEQVYARGKLMVKDGKACVKGTFETAGGSGGTGGYPYDVPDYA
Consider B5, for which the binding result is “binds”.
